From the DeepSol protein solubility set

Assay: soluble on expression in E. coli; label from the status in PepcDB or PDB records
With “MGSSHHHHHHSSASMTGGQQMGRTLYDDDDKDRWGSELETGRQKARGAATRARQKQRASLETMDKAVQRFRLQNPDLDSEALLTLPLLQLVQKLQSGELSPEAVFFTYLGKAWEVNKGTNCVTSYLTDCETQLSQAPRQGLLYGVPVSLKECFSYKGHDSTLGLSLNEGMPSESDCVVVQVLKLQGAVPFVHTNVPQSMFSYDCSNPLFGQTMNPWKSSKSPGGSSGGEGALIGSGGSPLGLGTDIGGSIRFPSAFCGICGLKPTGNRLSKSGLKGCVYGQTAVQLSLGPMARDVESLALCLKALLCEHLFTLDPTVPPLPFREEVYRSSRPLRVGYYETDNYTMPSPAMRRALIETKQRLEAAGHTLIPFLPNNIPYALEVLSTGGLFSDGGRSFLQNFKGDFVDPCLGDLILILRLPSWFKRLLSLLLKPLFPRLAAFLNNMRPRSAEKLWKLQHEIEMYRQSVIAQWKAMNLDVLLTPMLGPALDLNTPGRATGAVSYTMLYNCLDFPAGVVPVTTVTAEDDAQMELYKGYFGDIWDIILKKAMKNSVGLPVAVQCVALPWQEELCLRFMREVEQLMTPQKQPS” the “soluble on expression in E. coli” value was “soluble”. In the case of “MSSSDAFWRMFANKNKGKSNTRSAFQVVKEEQPSTSTEPDDKKPLHHEIAGEMIKNPAKGKRKRVQIKNDEYEQLMMLGVPVRVPRGLSLYSTQKLMIVRILTALKNSQNVLGESPTGSGKTMALLASTCAWLKQYIDEKRESKEKCEIHGFSGKTQVVFTNDIGIPLESKVYEEPPEEEEFIEPVPVKNDKLFEAQWEHDFTPHTPGETPPVTLKEELEPVKKPEPVETKCTCLPRVRIYYGTRTHKQIAQVVKEFSRLPYAKILKHTILASREQSCINPAARKHADISQYCKEVNSAHSIGCSFKSAMKPRFEKALPLRDHLERNGTVVFDMEKIVETLAISYPQLCPYFSTNRILTQDADIIFCPFSYLVDPLIRNSSDVQIRNSIVILDEAHNIEDTCREAASFSFTEKELDDSILSLRIKRKAVDTELDKTGIEEKLLHIPDREVHLKEFRGHLLYLEHLILEMLRWIRQVSTEAKTPARGGQDGVKTCTISSANLFTSLTDPENGVDLFTPPLTPKHAAVAASFSAITKHNEPEMQYFDAFKPSSTAIVCIEKWLYFQSYFGNQQYQSTYRLNISIEPINQNGRFNHTFDADVSMSTSFGNPRPTTTRSSAGPRNMQYKEENAWLADAAADGDDWKDPSMSETGHKPISEGCKTTISLWCMSPALSFFDAFNETRSIVLASGTLCPMDTLKTELGMEFKQQVEGDQVINKDNIFAAVLPIGPFGNRIQCTYRNTSDPESSFYCELGAIIKYVCSNVPAGILCFLPSYRVLDQLKQCMIRNSTMRQIEMKKVVLYEPRRSSELTSVMDQFDAAIFDPSRFGANINGSLMFAVFRGKVSEGIDFADDRARVVISVGIPYPNAMDDQVNAKKLYNDQNSKEKGILTGDEWYTTQAYRALNQALGRCLRHKNDWGAMLMIDERLERQTGNLVGGASSARVSKWIRAQLKSYPSFKEFNANFREFIQRRHAVEKAKKENFCE”, the “soluble on expression in E. coli” value is reported as “not soluble”. For “MSLKLIGLLMLSYPLQAAPTDLSRYLETQLKEDAREALNSYLQQQGWSASEVDYQVWLSPAVTHLPPCQQAIRLQAGGQYRQPWGRRPYLAECTEPAWQLRARVEVTLMLPVWVTAQEIQKGQTIRTGDLVEKSLDISRLQRGFVPSSESLVGSKSNRNLRMGQLIGELDLQKAWAIREGEGVLIRAGLDGFSATTRGKALANGAIGDGIKVRNISSGKEIQAWVIEKGEVETRFEGHHHHHH”, the “soluble on expression in E. coli” value was “not soluble”. For “MGSDKIHHHHHHMKSDTEEKYLQQVNRVIDYINSHLNEPLRVETLAREVCLSEYHFHRIMRAYLHEPLATYIARQRVERAVMYLQMKNIRLAQVAEMVGYETPQSLSKAFKQFFGISPTAYRKRRAERYEEFSTLKKESLKPEILTEPELKLVYIRIIGRYGEEEPYIEAWRKLRDFLQINGLLTPSTRWIGISFDDPTVTKTEQCRFYACATVEHDVSPQGAFGMKTIPQGRYAVYTLRGSYSGLQEMYDRIYSHPLPTAFRDATSFEEYLNCEPDTEEKDYVTRIYIPIE”, the “soluble on expression in E. coli” value was “not soluble”. In the case of “MAHHHHHHMQFVVVDGSWPVVPCAIPRSQLLARSVKDTDHGEDGGGQSVLPGHALFTLCQEVLDTSASKTKAPPELATLDMTFLRDPQSGPLGALRLYTFKSVSHQFFAVEDLVSSGCLIVFTSHWASLTSAALLTGVRTTHKEKDDSAKSSRRRIENNTGSGTREVSASRASSLMGRGRSVLQKFSRAETYFTSVASATQRDFEMVNELLLSGTIRMNAHLESFLCSVCGNLPRRTMTTSCCGAVVCLLCAPTLSSSSVLREEVVCAVCGEMPLTNPEAHVSRDAEVMRLVRELRVLYHPQVSAAACRAMPGETQPPPTPFNVHHAGLPVPICDMNEPTGSVLGSVFMGPS”, the “soluble on expression in E. coli” value is reported as “not soluble”. In the case of “AHHHHHHGSTLRLLNDFVKDKLFGETVLVENNSYLGVETLLFVIFKLGEELNVPILVEDVLDTFSIYKKHLEMLGLKTPENIKILKIGGSEEGKGVVKRIPFDFDISRYLLEYGKSFEDVSPKEKFIDLVFGLDRFFILIDNLIDTAKLLNSIKNYIHNENRTAFYFIEANLLKATKPIILYYLEDIATSVVRINQEKNILTFEPVKDIWSVRNKINQISISFGDLFRETL”, the “soluble on expression in E. coli” value is reported as “not soluble”. For “MRFIHTSDWHLGKSLEGHSRIEEQAKFCEEFIKIVESNEIDMVIIAGDVYDTSNPPAQAEKLFYQTVSRLANNGQRCVLIISGNHDNPERLSAITPLAHEQGILIYGYPLSATIEAKYKGFEITYATQGCTKLNINGENIVVATLPYPSEKRLNEVFSSEDEFEKQKNYSEKVGDIFRSLEENFRSDTINIAVSHIFVIGGESTESERPIQLGGSFLVERKDLPEKAQYTALGHLHKQQKASERLNAYYSGSPLQYSKDERAYTKGAYIVDIKAGEKPIIEDVYFNNYKPIEVFKCNGIEEALDICEQNQDREIWSYFEINTDEIISQNEIKKMKELLKDIIEIKPIITSCYEQESVDIKEKSMAELFREFYSFSKGVEPKGELMDLFLDIISEEGESADETN”, the “soluble on expression in E. coli” value was “not soluble”. In the case of “NTGFDINGMVSKIVSAERVPKQQRIDNERTNIDTSISAYGRLRESLDTMKNLMTQFRQEKAFAVRKVDTSNEQVVSATATTEAIAGNYSVDVLQLAQ”, the “soluble on expression in E. coli” value is reported as “not soluble”. For “ATEATNATNNQSTQVSQATSQPINFQVQKDGSSEKSHMDDYMQHPGKVIKQNNKYYFQTVLNNASFWKEYKFYNANNQELATTVVNDNKKADTRTINVAVEPGYKSLTTKVHIVVPQINYNHRYTTHLEFEKAIPTLADAAK”, the “soluble on expression in E. coli” value was “soluble”. For “MSLKYVNKVIVILGASFAGMTCAQKLRQLNPNWDIVLIDKEIHPDYVPNGLNWYYRHEISGLNQAMWQTEEEQRLQNIRCLFGLKVEKINKEDRELMLSDGSSVYYDQLICAMGSQAESTYIDGADAQGVLTTKTYATSQNAKQVLDKSHKVAVVGAGIIGLDIAYSLHESGKAVTLLEAQERPDFRHTDPDMSLPLLDAMAESKLHFFQNQKVEKITVTREEKLCLRTLTGDTFTVDAVILAVNFRPDSRLLTGLVDLSVDNSVVVNDYFQTSDPNIYAIGDLIWSYFKGLNSAYYMPLINQAIRSAQMLAYHLSGHAVPKLKITRATGSKHFGYYRANIGLTELEAGFYEDTVSVTYFPKEQYDLRIKLIANQKTGHLLGAQLISKENCLATANQLVQAISCDMTDFDLAFQDFIYTARESEMAYMLHQAAINLYEKRIGEGHHHHHH”, the “soluble on expression in E. coli” value was “soluble”. With “MGSDKIHHHHHHMSKPSRWPLTADGIRFITPHVLVKRLQNHALAKGLFVTAMGYYPTASGHAMERKGHPDHILIYCTAGSGFLTMAGKTTEINSGDIFYLPAGSQHSYQASKELPWTLYWLHFDGTLANDFCQHINIVERKFTIGVQPRVIRVFDGISHLRHSSHNLAEFIQGGHQVQALLSYIALLVQQRKPSAINTFDTENLRAMMQEHIHSKLDLDSLAEAAKLSKYHFSKKFKQVTGESPISYFINMKMQRACYLLDSTPRSVKHVASELGYHDTYYFSRLFKKNIGMAPAIYRKAKL” the “soluble on expression in E. coli” value was “not soluble”. With “MNQAIGGSFDDVIGNHQADTAMIVQISADRKEINLVSIPRDSLVDVPQCETSKGTIPAQYNVMFNSIFAGAYKTGGDLSSAASCTLNAVNSLTGLNIQNFIVVDFAGLVKMIDSVGGVDLCIPQNVNDPYTGLNLDKGMHHLDGVAATQYARIRHGIGDGSDTSRTTRQQYLIKQLMSEALSKNLFTDTAQLYQLAKSALKSLNISQGMADTAALAGLAMSLKNFTMTNLQTQTVPVVPAPSDPNRSVWTDEADNLWEKMRAGKPIFDTADSNSGGSSDTSSDNSASSDDSGTTDSNQSDTTAETPDPVTGLITKSDGTLVDPSTGGTVDPDDGSIHDATTGQYIGLADRYLNATVCAVPAKNLEHHHHHH” the “soluble on expression in E. coli” value was “soluble”.
